Experimental data reported in the supplement of paper PMC9170038.

Test system: MS2 coat protein
Assay: apparent KD of MS2 coat protein; designed switch direction (-1 OFF switch, 1 ON switch): -1; higher = weaker reporter binding
Summary of the method: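 RNA switches sharing common flanks were transcribed by stalled E. coli RNA polymerase on Illumina chips. A doubling series of SNAP-549-labelled MS2 coat protein, from 0.7 or 1.5 nM to 3 µM, was applied in Tris-HCl pH 7.5 buffer with KCl, MgCl2, BSA, DTT, tRNA and Tween-20. Each step lasted 0.8–1.5 h at the bottom of the series and 10–20 min at the top. Normalised cluster fluorescence was curve-fitted, giving apparent KD as the per-design median over clusters.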

[1] = input ligand: microRNA oligo, concentration not stated
[2] = Eterna round: R95, input ligand: FMN 200 uM
[3] = Eterna round: R95, input ligand: microRNA oligo, concentration not stated
[4] = Eterna round: R95, input ligand: none

Row | Sequence | apparent KD of MS2 coat protein (input ligand: FMN 200 uM) | apparent KD of MS2 coat protein [1] | apparent KD of MS2 coat protein (input ligand: none) | apparent KD of MS2 coat protein [2] | apparent KD of MS2 coat protein [3] | apparent KD of MS2 coat protein [4]
1 | AAGAAGAUCAAAGGAUAUGGAGCUGAAACGGCGCUAGAAGGUUGUCUAGUGUAACAUGAGGAUCACCCAUGUAGGUACCUCUAA [AK ExNG1-V2-1.1] (Eterna round: R96, puzzle: Exclusion NG 1) | 730 nM | 376 nM | 847 nM | – | – | –
2 | AAGAAGCUGAGAGGAUAUGGAGCCGAAACGGAGCUAGAAGGCUUUGCAGAAAGACAUGAGGAUCACCCAUGUUCAUGUAGAGAA [AK ExNG1-1.3] (Eterna round: R96, puzzle: Exclusion NG 1) | 15.2 nM | 12.6 nM | 18.4 nM | – | – | –
3 | AAGAAGUGAGGAUAUCACCCUGCGCUACAGUUGCGCAGGCAUGAGAAGGCACUUGAGGAUCACCCAAGUCCUAU [Bitiri] (Eterna round: R97, puzzle: Exclusion 4) | 212 nM | – | 23.6 nM | – | – | –
4 | AAGAAGUGAGGAUAUGCAAAGAAAGAAAGAAAGAAAGAAAAGCAGAAGGCACAUGAGGAUCACCCAUGUAAAGA [Fourth Time] (puzzle: Exclusion 4) | – | – | – | 20.5 nM | 16.5 nM | 15.6 nM
5 | AAGAAUUACAUGAGGAUCACCCAUGUAGAGUGGGAAGAGAGAUAGGAUAUGAUGUGAGAAUCAUAUCAGAAGGAUCGAGACUCA [AK ExNG3-2] (Eterna round: R96, puzzle: Exclusion NG 3) | 144 nM | 105 nM | 138 nM | – | – | –
6 | AAGACACAUGAGGAUCACCCAUGUGAGGAUAUUCGAUGCUGAGCGUAAGCUUAGUAUCGGAGAAGGUACAUAGG [Salishxclusion 9 - Jieux - Exclusion 1] (Eterna round: R97, puzzle: Exclusion 1) | 77.2 nM | – | 66.6 nM | – | – | –
7 | AAGACACUUAGAGGAUAUGUGAAAGGAAGUGUAACAGAAGGCUAGGUGAGAACAUGAGGAUCACCCAUGUGAUCACAUGCCAAA [PowerStrip EXNG 1.27] (Eterna round: R96, puzzle: Exclusion NG 1) | 20 nM | 11.9 nM | 12.1 nM | – | – | –
8 | AAGAGCAGACGGAGAUCCAACAUGAGGAUCACCCAUGUCUCGCAAGCUUUUUGCUUGUCUUAUCCUCCUCUGUUCAC [Esquitian 4] (Eterna round: R97, puzzle: Sensor, turn-off variant 1) | 14.8 nM | – | 14.6 nM | – | – | –
9 | AAGAGGUCAGGAUAUACGGAAAGAGAGAGAAGGUGAGGGUAACAUGAGGAUCACCCAUGUAGAAGGGACUAAGA [JR_Exclu2_Sub074] (puzzle: Exclusion 2) | – | – | – | 54.5 nM | 44.8 nM | 38.5 nM
10 | AAGAGUGCAGGAUAUACUUGGUAGGGUAAGAUGAGUGAGGGACAUGAGGAUCACCCAUGUAGAAGGGCAGAGAG [JR_Exclu2_Sub057] (puzzle: Exclusion 2) | – | – | – | 33.1 nM | 35.1 nM | 26.7 nM
11 | AAGAGUGCAGGAUAUACUUGUUAGGACGGUUGGAUGAUUUGACAUGAGGAUCACCCAUGUAGAAGGGCAGAGAG [JR_Exclu2_Sub052] (puzzle: Exclusion 2) | – | – | – | – | 126 nM | –
12 | AAGAGUGCAGGAUAUACUUGUUAGGACGGUUGGAUGGUUUGACAUGAGGAUCACCCAUGUAGAAGGGCAGAGAG [JR_Exclu2_Sub053] (puzzle: Exclusion 2) | – | – | – | – | 70.5 nM | –
13 | AAGAUGCGGAUAGGAUAUGGAAAAAAAAAAAGACCAGAAGGAUUGGUCAUAUAACAUGAGGAUCACCCAUGUAUAUGUUGUGAA [AK ExNG1-3] (Eterna round: R96, puzzle: Exclusion NG 1) | 17.8 nM | 21.3 nM | 19.3 nM | – | – | –
14 | AAGAUGCGGAUAGGAUAUGGAAAAAAAAAAGGAUUAGAAGGGUUGGUUAAAAUACAUGAGGAUCACCCAUGUGAAUCAUGAGAA [AK ExNG1-2.2] (Eterna round: R96, puzzle: Exclusion NG 1) | 392 nM | 188 nM | 186 nM | – | – | –
